Laboratory results published in patent US20130315910A1 (Xencor, published 2013).

T1: mFcγRIIb (Mus musculus, UniProt P08101)
T1 construct: extracellular region, C-terminal His- and GST-tag; also called mouse FcγRII
T1 sequence (receptor extracellular region, looked up): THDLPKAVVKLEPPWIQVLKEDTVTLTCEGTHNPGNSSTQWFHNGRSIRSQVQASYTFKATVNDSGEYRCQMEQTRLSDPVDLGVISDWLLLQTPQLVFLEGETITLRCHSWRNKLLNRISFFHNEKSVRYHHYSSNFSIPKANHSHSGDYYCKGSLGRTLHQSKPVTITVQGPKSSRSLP

T2: mFcγRIV
T2 construct: also called mouse FcγRIV; not shown: C-terminal His and GST tags (named only on our card)
T2 chain: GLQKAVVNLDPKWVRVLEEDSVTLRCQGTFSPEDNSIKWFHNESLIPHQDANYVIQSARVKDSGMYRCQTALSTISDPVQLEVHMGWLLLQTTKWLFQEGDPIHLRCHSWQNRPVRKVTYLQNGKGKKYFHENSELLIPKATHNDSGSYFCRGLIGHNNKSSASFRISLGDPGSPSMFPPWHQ

T3: cynoFcγRIIb (Macaca fascicularis, UniProt A0A140HDP4)
T3 construct: extracellular region, C-terminal His- and GST-tag; also called cynomolgus monkey FcγRIIb
T3 sequence (receptor extracellular region): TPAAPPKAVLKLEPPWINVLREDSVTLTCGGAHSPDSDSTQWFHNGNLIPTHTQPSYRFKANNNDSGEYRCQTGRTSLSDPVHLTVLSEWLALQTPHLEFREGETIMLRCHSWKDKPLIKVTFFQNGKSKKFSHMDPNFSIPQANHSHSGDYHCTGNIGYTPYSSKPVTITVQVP

T4: human FcγRIIa (131H), His- and GST-tagged (human, UniProt P12318 34-217)
T4 construct: also called H131 FcγRIIa; HIIa; not shown: 6xHis and GST tags of the pTT5 vector
T4 sequence (looked up): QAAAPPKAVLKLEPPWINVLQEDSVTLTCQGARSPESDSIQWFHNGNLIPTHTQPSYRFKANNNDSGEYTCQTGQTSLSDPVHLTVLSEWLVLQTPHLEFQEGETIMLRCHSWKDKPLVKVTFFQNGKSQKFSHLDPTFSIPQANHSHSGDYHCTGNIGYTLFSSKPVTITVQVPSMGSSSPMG

T5: human FcγRIIb receptor protein (R&D Systems) (human, UniProt P31994 46-217)
T5 construct: Bought protein injected over captured antibody in Biacore; also called CD32b
T5 sequence (looked up): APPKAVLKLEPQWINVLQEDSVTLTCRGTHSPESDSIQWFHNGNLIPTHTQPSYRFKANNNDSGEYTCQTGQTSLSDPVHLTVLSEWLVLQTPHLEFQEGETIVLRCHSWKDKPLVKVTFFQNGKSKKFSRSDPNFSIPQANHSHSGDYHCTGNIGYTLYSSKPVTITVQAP

T6: human FcγRIIa (131R), His- and GST-tagged (human, UniProt P12318 34-217)
T6 construct: Expressed in HEK293T cells, purified by nickel chromatography; also called R131 FcγRIIa; not shown: 6xHis and GST tags of the pTT5 vector
T6 sequence (looked up): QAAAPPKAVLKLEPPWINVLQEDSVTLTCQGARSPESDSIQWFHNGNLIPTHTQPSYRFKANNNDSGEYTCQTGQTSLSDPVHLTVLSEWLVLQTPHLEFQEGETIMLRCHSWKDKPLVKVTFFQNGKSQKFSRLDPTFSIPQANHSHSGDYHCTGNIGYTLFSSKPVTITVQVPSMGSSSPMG


Legend:
[1] = target: T7, cynoFcγRIIIa (Macaca fascicularis, UniProt Q8SPW2); test: SPR, off-rate
T7 construct: extracellular region, C-terminal His- and GST-tag; also called cynomolgus monkey FcγRIIIa

[2] = target: T1, mFcγRIIb; test: SPR, off-rate
[3] = target: T2, mFcγRIV; test: SPR, off-rate
[4] = target: T3, cynoFcγRIIb; test: SPR, off-rate
[5] = target: T8, human FcγRIIIa (158V), His- and GST-tagged (human, UniProt P08637 17-208); test: SPR
T8 construct: also called V158 FcγRIIIa; VIIIa; not shown: 6xHis and GST tags of the pTT5 vector

[6] = target: T4, human FcγRIIa (131H), His- and …; test: SPR
[7] = target: T9, human FcγRI receptor protein (R&D Systems) (human, UniProt P12314 16-288); test: SPR
T9 construct: also called soluble FcγRI; solFcγRI

[8] = target: T5, human FcγRIIb receptor protein (R&D …); test: SPR
[9] = target: T6, human FcγRIIa (131R), His- and …; test: SPR

T7 sequence (Q8SPW2 17-208): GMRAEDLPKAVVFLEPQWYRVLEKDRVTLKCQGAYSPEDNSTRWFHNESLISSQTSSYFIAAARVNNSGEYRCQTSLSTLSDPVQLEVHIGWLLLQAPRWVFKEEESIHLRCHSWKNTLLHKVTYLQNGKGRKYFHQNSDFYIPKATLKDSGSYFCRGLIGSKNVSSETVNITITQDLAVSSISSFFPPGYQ
T9 sequence (P12314 16-288 limits assumed): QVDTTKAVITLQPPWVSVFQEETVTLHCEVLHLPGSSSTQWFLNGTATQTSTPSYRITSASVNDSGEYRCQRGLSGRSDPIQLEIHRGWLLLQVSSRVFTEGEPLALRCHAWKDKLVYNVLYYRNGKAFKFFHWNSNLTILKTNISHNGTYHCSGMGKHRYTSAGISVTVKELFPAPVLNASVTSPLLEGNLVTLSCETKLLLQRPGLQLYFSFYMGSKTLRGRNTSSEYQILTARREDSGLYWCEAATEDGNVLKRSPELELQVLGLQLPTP
T8 sequence (P08637 17-208 F176V): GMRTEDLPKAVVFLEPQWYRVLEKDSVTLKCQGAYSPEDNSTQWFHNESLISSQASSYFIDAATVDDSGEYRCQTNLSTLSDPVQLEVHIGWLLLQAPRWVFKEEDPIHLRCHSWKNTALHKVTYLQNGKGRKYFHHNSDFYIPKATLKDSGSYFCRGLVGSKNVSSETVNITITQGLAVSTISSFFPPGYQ

Row | Binder | binding result [1] | binding result [2] | binding result [3] | binding result [4] | Kd [5] | Kd [6] | Kd [7] | Kd [8] | Fold vs WT IgG1 [8] | Fold vs WT IgG1 [9] | Kd [9] | binding result [8] | binding result [9]
1 | G236P (antibody, human IgG1, kappa, HuAM4G7 anti-CD19 IgG1 (m1) with this Fc substitution, EU index; copies: 2 + 2) heavy: not shown light: DIVMTQSPATLSLSPGERATLSCRSSKSLQNVNGNTYLYWFQQKPGQSPQLLIYRMSNLNSGVPDRFSGSGSGTEFTLTISSLEPEDFAVYYCMQHLEYPITFGAGTKLEIKRTVAAPSVFIFPPSDEQLKSGTASVVCLLNNFYPREAKVQWKVDNALQSGNSQESVTEQDSKDSTYSLSSTLTLSKADYEKHKVYACEVTHQGLSSPVTKSFNRGEC | no binding | no binding | no binding | no binding | – | – | – | 10 µM | 0.147 fold | 0.0859 fold | 10 µM | – | –
2 | G237K (antibody, human IgG1, kappa, HuAM4G7 anti-CD19 IgG1 (m1) with this Fc substitution, EU index; copies: 2 + 2) heavy: not shown light: DIVMTQSPATLSLSPGERATLSCRSSKSLQNVNGNTYLYWFQQKPGQSPQLLIYRMSNLNSGVPDRFSGSGSGTEFTLTISSLEPEDFAVYYCMQHLEYPITFGAGTKLEIKRTVAAPSVFIFPPSDEQLKSGTASVVCLLNNFYPREAKVQWKVDNALQSGNSQESVTEQDSKDSTYSLSSTLTLSKADYEKHKVYACEVTHQGLSSPVTKSFNRGEC | no binding | no binding | no binding | no binding | – | – | – | 100 µM | 0.0147 fold | 0.00859 fold | 100 µM | – | –
3 | P329E (antibody, human IgG1, kappa, HuAM4G7 anti-CD19 IgG1 (m1) with this Fc substitution, EU index; copies: 2 + 2) heavy: not shown light: DIVMTQSPATLSLSPGERATLSCRSSKSLQNVNGNTYLYWFQQKPGQSPQLLIYRMSNLNSGVPDRFSGSGSGTEFTLTISSLEPEDFAVYYCMQHLEYPITFGAGTKLEIKRTVAAPSVFIFPPSDEQLKSGTASVVCLLNNFYPREAKVQWKVDNALQSGNSQESVTEQDSKDSTYSLSSTLTLSKADYEKHKVYACEVTHQGLSSPVTKSFNRGEC | no binding | no binding | no binding | no binding | – | – | – | 10 µM | 0.147 fold | 0.0859 fold | 10 µM | – | –
4 | G236R (antibody, human IgG1, kappa, HuAM4G7 anti-CD19 IgG1 (m1) with this Fc substitution, EU index; copies: 2 + 2) heavy: not shown light: DIVMTQSPATLSLSPGERATLSCRSSKSLQNVNGNTYLYWFQQKPGQSPQLLIYRMSNLNSGVPDRFSGSGSGTEFTLTISSLEPEDFAVYYCMQHLEYPITFGAGTKLEIKRTVAAPSVFIFPPSDEQLKSGTASVVCLLNNFYPREAKVQWKVDNALQSGNSQESVTEQDSKDSTYSLSSTLTLSKADYEKHKVYACEVTHQGLSSPVTKSFNRGEC | no binding | no binding | no binding | no binding | – | – | – | 100 µM | 0.0147 fold | 0.00859 fold | 100 µM | – | –
5 | V266D (antibody, human IgG1, kappa, HuAM4G7 anti-CD19 IgG1 (m1) with this Fc substitution, EU index; copies: 2 + 2) heavy: not shown light: DIVMTQSPATLSLSPGERATLSCRSSKSLQNVNGNTYLYWFQQKPGQSPQLLIYRMSNLNSGVPDRFSGSGSGTEFTLTISSLEPEDFAVYYCMQHLEYPITFGAGTKLEIKRTVAAPSVFIFPPSDEQLKSGTASVVCLLNNFYPREAKVQWKVDNALQSGNSQESVTEQDSKDSTYSLSSTLTLSKADYEKHKVYACEVTHQGLSSPVTKSFNRGEC | no binding | no binding | no binding | no binding | – | – | – | 10 µM | 0.147 fold | 0.704 fold | 1.22 µM | – | –

Further lines, results first:

Row | binding result [1] | binding result [2] | binding result [3] | binding result [4] | Kd [5] | Kd [6] | Kd [7] | Kd [8] | Fold vs WT IgG1 [8] | Fold vs WT IgG1 [9] | Kd [9] | binding result [8] | binding result [9] | Binder
6 | no binding | no binding | no binding | no binding | 0.579 µM | 2.73 µM | 0.0037 µM | 0.0266 µM | – | – | – | – | – | anti-CD19 antibody HuAM4G7 IgG1 G236D/S267E (antibody, Positions in EU numbering; copies: 2 + 2) heavy: not shown light: DIVMTQSPATLSLSPGERATLSCRSSKSLQNVNGNTYLYWFQQKPGQSPQLLIYRMSNLNSGVPDRFSGSGSGTEFTLTISSLEPEDFAVYYCMQHLEYPITFGAGTKLEIKRTVAAPSVFIFPPSDEQLKSGTASVVCLLNNFYPREAKVQWKVDNALQSGNSQESVTEQDSKDSTYSLSSTLTLSKADYEKHKVYACEVTHQGLSSPVTKSFNRGEC
7 | no binding | no binding | no binding | no binding | – | – | – | 100 µM | 0.0147 fold | 0.00859 fold | 100 µM | – | – | G237E (antibody, human IgG1, kappa, HuAM4G7 anti-CD19 IgG1 (m1) with this Fc substitution, EU index; copies: 2 + 2) heavy: not shown light: DIVMTQSPATLSLSPGERATLSCRSSKSLQNVNGNTYLYWFQQKPGQSPQLLIYRMSNLNSGVPDRFSGSGSGTEFTLTISSLEPEDFAVYYCMQHLEYPITFGAGTKLEIKRTVAAPSVFIFPPSDEQLKSGTASVVCLLNNFYPREAKVQWKVDNALQSGNSQESVTEQDSKDSTYSLSSTLTLSKADYEKHKVYACEVTHQGLSSPVTKSFNRGEC
8 | no binding | no binding | no binding | no binding | – | – | – | 100 µM | 0.0147 fold | 0.00859 fold | 100 µM | – | – | L234K (antibody, human IgG1, kappa, HuAM4G7 anti-CD19 IgG1 (m1) with this Fc substitution, EU index; copies: 2 + 2) heavy: not shown light: DIVMTQSPATLSLSPGERATLSCRSSKSLQNVNGNTYLYWFQQKPGQSPQLLIYRMSNLNSGVPDRFSGSGSGTEFTLTISSLEPEDFAVYYCMQHLEYPITFGAGTKLEIKRTVAAPSVFIFPPSDEQLKSGTASVVCLLNNFYPREAKVQWKVDNALQSGNSQESVTEQDSKDSTYSLSSTLTLSKADYEKHKVYACEVTHQGLSSPVTKSFNRGEC
9 | no binding | no binding | no binding | no binding | – | – | – | 10 µM | 0.147 fold | 0.081 fold | 10.6 µM | – | – | G237S (antibody, human IgG1, kappa, HuAM4G7 anti-CD19 IgG1 (m1) with this Fc substitution, EU index; copies: 2 + 2) heavy: not shown light: DIVMTQSPATLSLSPGERATLSCRSSKSLQNVNGNTYLYWFQQKPGQSPQLLIYRMSNLNSGVPDRFSGSGSGTEFTLTISSLEPEDFAVYYCMQHLEYPITFGAGTKLEIKRTVAAPSVFIFPPSDEQLKSGTASVVCLLNNFYPREAKVQWKVDNALQSGNSQESVTEQDSKDSTYSLSSTLTLSKADYEKHKVYACEVTHQGLSSPVTKSFNRGEC
10 | no binding | no binding | no binding | no binding | – | – | – | – | – | – | – | no binding | no binding | G237H (antibody, human IgG1, kappa, HuAM4G7 anti-CD19 IgG1 (m1) with this Fc substitution, EU index; copies: 2 + 2) heavy: not shown light: DIVMTQSPATLSLSPGERATLSCRSSKSLQNVNGNTYLYWFQQKPGQSPQLLIYRMSNLNSGVPDRFSGSGSGTEFTLTISSLEPEDFAVYYCMQHLEYPITFGAGTKLEIKRTVAAPSVFIFPPSDEQLKSGTASVVCLLNNFYPREAKVQWKVDNALQSGNSQESVTEQDSKDSTYSLSSTLTLSKADYEKHKVYACEVTHQGLSSPVTKSFNRGEC
